Columns and labels:
[1] = target: neddylated CUL1-RBX1 with the FBXW7-SKP1 substrate receptor (human) (UniProt Q13616)
[2] = target: neddylated CUL2-RBX1 in complex with the KLHDC2-ELONGIN B/C substrate receptor (human) (UniProt Q13617)
[3] = target: neddylated CUL2-RBX1 in complex with the VHL-ELONGIN B/C substrate receptor (human) (UniProt Q13617)

Chain of ARIH1 (Q9Y4X5 whole entry): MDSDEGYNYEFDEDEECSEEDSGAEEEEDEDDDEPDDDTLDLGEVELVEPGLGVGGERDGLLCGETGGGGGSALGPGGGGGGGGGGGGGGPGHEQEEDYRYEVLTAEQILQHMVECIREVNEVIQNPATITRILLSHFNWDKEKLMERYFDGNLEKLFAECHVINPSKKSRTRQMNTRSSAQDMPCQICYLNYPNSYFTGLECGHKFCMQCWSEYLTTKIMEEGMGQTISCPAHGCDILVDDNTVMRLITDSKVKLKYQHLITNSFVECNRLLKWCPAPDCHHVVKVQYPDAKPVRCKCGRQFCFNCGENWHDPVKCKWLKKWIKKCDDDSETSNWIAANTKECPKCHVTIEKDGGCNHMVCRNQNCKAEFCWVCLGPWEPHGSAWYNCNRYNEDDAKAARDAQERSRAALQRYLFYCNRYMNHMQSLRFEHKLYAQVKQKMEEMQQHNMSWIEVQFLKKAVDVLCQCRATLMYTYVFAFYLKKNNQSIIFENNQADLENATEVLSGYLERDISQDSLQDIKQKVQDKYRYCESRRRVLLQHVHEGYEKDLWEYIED

| Km of ARIH1 for the CRL-substrate complex (single-encounter ubiquitylation, ARIH1 titrated, 10 s, Michaelis-Menten fit); peptide on the CRL: KR Lys 387 cycE [1] | Km of ARIH1 for the CRL-substrate complex (single-encounter ubiquitylation, ARIH1 titrated, 10 s, Michaelis-Menten fit); peptide on the CRL: KR Ser 387 cycE [1] | Km of ARIH1 for the CRL-substrate complex (single-encounter ubiquitylation, ARIH1 titrated, 10 s, Michaelis-Menten fit); peptide on the CRL: Lys only cycE [1] | Km of ARIH1 for the CRL-substrate complex (single-encounter ubiquitylation without cold competitor peptide, ARIH1 titrated, 10 s, Michaelis-Menten fit); peptide on the CRL: Arg47 Arg48 SelK [2] | Km of ARIH1 for the CRL-substrate complex (single-encounter ubiquitylation without cold competitor peptide, ARIH1 titrated, 10 s, Michaelis-Menten fit); peptide on the CRL: Lys47 Arg48 SelK [2] | Km of ARIH1 for the CRL-substrate complex (single-encounter ubiquitylation, ARIH1 titrated, 10 s, Michaelis-Menten fit); peptide on the CRL: NSer Hif1α [3] | Km of ARIH1 for the CRL-substrate complex (single-encounter ubiquitylation, ARIH1 titrated, 10 s, Michaelis-Menten fit); peptide on the CRL: WT Hif1α [3] | Substance |
| --- | --- | --- | --- | --- | --- | --- | --- |
| 1.12 µM | 1.19 µM | 0.544 µM |  |  |  |  | A397D/K398I/A399V ARIH1 (from UniProt Q9Y4X5 1-557) (enzyme) |
|  |  |  | 0.391 µM | 0.268 µM | 0.66 µM | 0.403 µM | ARIH1 (from UniProt Q9Y4X5 1-557) (enzyme) |
| 1.56 µM | 0.461 µM | 1.22 µM |  |  |  |  | K342A/E343A ARIH1 (from UniProt Q9Y4X5 1-557) (enzyme) |
| 0.874 µM | 1.04 µM | 0.98 µM |  |  |  |  | N358A ARIH1 (from UniProt Q9Y4X5 1-557) (enzyme) |
